T1: murine CD103 (mouse, UniProt Q60677 20-1167)
T1 construct: whole, on cells; also called murine CD103+ T cells; mouse CD103
T1 sequence (looked up): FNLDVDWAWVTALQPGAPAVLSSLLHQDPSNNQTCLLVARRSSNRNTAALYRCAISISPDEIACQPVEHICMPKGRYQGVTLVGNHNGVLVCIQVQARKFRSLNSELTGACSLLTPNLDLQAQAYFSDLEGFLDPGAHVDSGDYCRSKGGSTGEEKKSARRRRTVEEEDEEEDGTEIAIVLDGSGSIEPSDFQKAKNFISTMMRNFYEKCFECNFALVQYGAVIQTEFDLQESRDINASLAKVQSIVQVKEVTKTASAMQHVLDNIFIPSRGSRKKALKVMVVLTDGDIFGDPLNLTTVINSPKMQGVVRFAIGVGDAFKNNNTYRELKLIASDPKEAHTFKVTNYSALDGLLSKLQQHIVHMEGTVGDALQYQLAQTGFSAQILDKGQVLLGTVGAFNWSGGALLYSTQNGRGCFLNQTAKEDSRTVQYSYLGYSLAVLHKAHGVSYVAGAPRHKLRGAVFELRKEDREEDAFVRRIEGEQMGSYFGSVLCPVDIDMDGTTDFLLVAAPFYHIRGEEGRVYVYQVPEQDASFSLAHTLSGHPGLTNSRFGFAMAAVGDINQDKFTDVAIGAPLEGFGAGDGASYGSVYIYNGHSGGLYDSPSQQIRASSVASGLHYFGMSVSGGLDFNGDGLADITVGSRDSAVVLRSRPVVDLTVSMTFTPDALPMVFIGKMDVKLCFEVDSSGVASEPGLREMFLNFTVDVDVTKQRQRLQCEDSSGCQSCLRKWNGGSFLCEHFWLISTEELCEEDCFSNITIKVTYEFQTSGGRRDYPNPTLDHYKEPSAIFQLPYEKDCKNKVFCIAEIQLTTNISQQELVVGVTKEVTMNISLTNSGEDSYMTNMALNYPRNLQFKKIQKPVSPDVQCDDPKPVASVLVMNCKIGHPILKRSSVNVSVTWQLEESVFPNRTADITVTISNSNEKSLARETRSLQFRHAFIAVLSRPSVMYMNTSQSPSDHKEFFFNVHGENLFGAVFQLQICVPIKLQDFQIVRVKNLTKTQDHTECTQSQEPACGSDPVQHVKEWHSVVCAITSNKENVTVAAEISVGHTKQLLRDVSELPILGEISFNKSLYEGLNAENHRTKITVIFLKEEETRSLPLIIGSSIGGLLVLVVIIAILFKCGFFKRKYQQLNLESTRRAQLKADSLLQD


Key:
[1] = molecular target: T2, human CD103 (integrin Alpha-E) / human integrin Beta-7 heterodimer on cells (human, UniProt P38570 19-1179; P26010 20-798); test: flow cytometry competition on CD103+CD8+ T cells; pre-incubation with unlabeled IgG (f2); table n=1
T2 construct: the assay field tells which cells; also called hCD103/hBeta7; CHO.K1-hCD103/hBeta7
Description: (§1) Percentage binding of fluorescently labeled mAbs was determined using flow cytometry. Maximum binding was set at 100%

[2] = molecular target: T2, human CD103 (integrin Alpha-E) / human …; test: flow cytometry competition on CD103+CD8+ T cells; pre-incubation with unlabeled BERACT; table n=2
Description: (§2) Percentage binding of fluorescently labeled mAbs was determined using flow cytometry. Maximum binding was set at 100%.
as §1

[3] = molecular target: T3, human integrin Alpha-4 / human integrin Beta-7 heterodimer on CHO-K1 cells (human, UniProt P13612 34-1032; P26010 20-798); test: cell ELISA on CHO.K1-humanAlpha4/beta7 cells, abs 450-610
T3 construct: Used as the control for reactivity with hBeta7; also called hAlpha4/hBeta7; CHO.K1-hAlpha4/hBeta7

[4] = molecular target: T2, human CD103 (integrin Alpha-E) / human …; test: flow cytometry competition on CD103+CD8+ T cells; pre-incubation with unlabeled BERACT; table n=1
Description: as §2, §1

[5] = molecular target: T1, murine CD103; test: flow cytometry on mouse spleen and thymus cells
Description: Additional aliquots were stained with relevant isotype controls or as fluorescence minus one controls (“FMO” controls are cells stained with all the fluorophores minus one fluorophore; the relevant isotype controls contain either a directly labeled unspecific isotype antibody or an unspecific isotype antibody combined with secondary detection reagent). Percentage binding of fluorescently labeled mAbs was determined using flow cytometry. Maximum binding was set at 100%. […] Data analysis was performed with FlowJo v10 (Tree Star) and surface receptor levels were expressed as mean fluorescent intensity (MFI).

[6] = molecular target: T2, human CD103 (integrin Alpha-E) / human …; test: flow cytometry competition on CD103+CD8+ T cells; pre-incubation with unlabeled MCA708 (f4); table n=2
Description: as §2, §1

[7] = molecular target: T2, human CD103 (integrin Alpha-E) / human …; test: flow cytometry competition on CD103+CD8+ T cells; pre-incubation with unlabeled 01A; table n=2
Description: as §2, §1

[8] = molecular target: T2, human CD103 (integrin Alpha-E) / human …; test: flow cytometry competition on CD103+CD8+ T cells; pre-incubation with unlabeled 02A; table n=2
Description: as §2, §1

[9] = molecular target: T2, human CD103 (integrin Alpha-E) / human …; test: flow cytometry competition on CD103+CD8+ T cells; pre-incubation with unlabeled 06A; table n=1
Description: as §2, §1

[10] = molecular target: T2, human CD103 (integrin Alpha-E) / human …; test: flow cytometry competition on CD103+CD8+ T cells; pre-incubation with unlabeled 03A; table n=1
Description: as §2, §1

[11] = molecular target: T2, human CD103 (integrin Alpha-E) / human …; test: flow cytometry competition on CD103+CD8+ T cells; pre-incubation with unlabeled IgG (f2); table n=2
Description: as §2, §1

T2 sequence (P38570 19-1179 limits assumed, chain 1 of 2): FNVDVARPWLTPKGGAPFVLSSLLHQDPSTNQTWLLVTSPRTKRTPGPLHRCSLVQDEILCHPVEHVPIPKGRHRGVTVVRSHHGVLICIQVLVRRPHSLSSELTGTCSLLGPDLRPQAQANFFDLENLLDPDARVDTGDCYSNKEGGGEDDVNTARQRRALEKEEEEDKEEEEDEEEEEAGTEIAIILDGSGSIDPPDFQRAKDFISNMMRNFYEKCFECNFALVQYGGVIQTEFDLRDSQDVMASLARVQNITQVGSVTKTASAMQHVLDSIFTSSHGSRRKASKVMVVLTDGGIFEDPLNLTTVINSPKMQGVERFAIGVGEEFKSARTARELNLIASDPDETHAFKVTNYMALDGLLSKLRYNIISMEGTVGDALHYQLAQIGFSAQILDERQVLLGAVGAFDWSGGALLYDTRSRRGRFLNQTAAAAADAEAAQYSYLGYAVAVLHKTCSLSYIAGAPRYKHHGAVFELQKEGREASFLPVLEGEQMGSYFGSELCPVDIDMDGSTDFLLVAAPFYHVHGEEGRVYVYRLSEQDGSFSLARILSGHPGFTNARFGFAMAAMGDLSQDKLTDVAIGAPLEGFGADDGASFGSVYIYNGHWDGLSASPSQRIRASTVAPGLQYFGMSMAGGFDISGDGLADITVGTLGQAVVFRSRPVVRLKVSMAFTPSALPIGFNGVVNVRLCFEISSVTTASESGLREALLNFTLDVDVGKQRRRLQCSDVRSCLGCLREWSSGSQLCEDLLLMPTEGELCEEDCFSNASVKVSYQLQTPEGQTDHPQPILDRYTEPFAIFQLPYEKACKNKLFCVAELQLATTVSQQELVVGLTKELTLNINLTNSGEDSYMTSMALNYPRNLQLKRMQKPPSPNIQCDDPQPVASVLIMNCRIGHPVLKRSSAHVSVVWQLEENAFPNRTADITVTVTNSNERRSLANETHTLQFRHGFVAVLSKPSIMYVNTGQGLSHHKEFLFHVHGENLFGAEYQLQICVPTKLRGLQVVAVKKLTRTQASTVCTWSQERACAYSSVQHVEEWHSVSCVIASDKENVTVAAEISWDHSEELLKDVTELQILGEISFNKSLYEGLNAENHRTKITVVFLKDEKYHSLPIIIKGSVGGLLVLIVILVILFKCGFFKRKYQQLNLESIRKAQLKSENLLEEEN
T2 sequence (P26010 20-798 limits assumed, chain 2 of 2): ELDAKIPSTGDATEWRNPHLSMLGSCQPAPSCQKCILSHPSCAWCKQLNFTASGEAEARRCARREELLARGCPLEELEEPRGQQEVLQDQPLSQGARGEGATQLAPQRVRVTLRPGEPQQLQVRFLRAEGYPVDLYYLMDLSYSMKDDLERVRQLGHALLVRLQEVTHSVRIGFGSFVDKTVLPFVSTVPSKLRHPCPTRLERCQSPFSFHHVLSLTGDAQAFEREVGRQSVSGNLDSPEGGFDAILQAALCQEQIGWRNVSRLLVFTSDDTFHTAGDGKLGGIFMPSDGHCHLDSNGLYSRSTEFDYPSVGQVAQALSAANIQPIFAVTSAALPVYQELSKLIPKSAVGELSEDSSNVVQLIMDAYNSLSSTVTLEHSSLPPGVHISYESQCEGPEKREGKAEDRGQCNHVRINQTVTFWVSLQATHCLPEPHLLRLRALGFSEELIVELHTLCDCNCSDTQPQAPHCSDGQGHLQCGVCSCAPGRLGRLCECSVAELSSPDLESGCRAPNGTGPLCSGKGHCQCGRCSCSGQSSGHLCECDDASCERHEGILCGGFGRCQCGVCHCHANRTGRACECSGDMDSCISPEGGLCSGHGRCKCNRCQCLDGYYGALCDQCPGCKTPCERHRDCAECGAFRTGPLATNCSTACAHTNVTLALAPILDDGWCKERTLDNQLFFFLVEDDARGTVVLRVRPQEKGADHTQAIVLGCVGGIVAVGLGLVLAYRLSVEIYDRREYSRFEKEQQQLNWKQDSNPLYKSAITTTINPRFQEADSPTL
T3 sequence (P13612 34-1032 limits assumed, chain 1 of 2): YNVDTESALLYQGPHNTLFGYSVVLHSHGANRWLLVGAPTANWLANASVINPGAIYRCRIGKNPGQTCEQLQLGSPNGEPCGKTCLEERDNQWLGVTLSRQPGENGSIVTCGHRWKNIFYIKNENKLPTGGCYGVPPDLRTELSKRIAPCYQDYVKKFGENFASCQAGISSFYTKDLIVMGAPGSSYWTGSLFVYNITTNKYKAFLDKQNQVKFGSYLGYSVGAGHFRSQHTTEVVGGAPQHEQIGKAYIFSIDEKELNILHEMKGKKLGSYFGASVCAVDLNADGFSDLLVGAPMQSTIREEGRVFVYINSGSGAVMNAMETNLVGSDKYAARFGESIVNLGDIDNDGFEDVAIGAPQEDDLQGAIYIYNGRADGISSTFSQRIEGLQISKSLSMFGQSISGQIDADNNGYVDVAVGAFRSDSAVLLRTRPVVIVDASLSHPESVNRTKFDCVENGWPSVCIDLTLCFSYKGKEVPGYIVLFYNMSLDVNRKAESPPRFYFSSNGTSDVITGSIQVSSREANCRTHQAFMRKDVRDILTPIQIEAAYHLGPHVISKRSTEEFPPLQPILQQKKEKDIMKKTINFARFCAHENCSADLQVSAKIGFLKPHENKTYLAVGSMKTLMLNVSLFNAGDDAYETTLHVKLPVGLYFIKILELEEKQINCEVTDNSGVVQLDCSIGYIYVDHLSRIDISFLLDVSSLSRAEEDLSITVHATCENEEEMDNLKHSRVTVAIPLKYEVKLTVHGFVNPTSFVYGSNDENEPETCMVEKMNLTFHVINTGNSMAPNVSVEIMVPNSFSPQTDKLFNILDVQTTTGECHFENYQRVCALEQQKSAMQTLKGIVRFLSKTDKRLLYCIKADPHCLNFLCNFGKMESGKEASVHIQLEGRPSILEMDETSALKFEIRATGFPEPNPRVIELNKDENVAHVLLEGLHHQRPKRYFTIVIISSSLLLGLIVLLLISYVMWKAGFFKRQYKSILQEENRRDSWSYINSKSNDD
T3 sequence (P26010 20-798 limits assumed, chain 2 of 2): as the sequence (P26010 20-798 limits assumed, chain 2 of 2) above

Row | Binder | % binding of the fluorescently labeled mAb (IgG pre-incubation = 100) [1] | % binding of the fluorescently labeled mAb (IgG pre-incubation = 100) [2] | binding result [3] | % binding of the fluorescently labeled mAb (IgG pre-incubation = 100) [4] | binding result [5] | % binding of the fluorescently labeled mAb (IgG pre-incubation = 100) [6] | % binding of the fluorescently labeled mAb (IgG pre-incubation = 100) [7] | % binding of the fluorescently labeled mAb (IgG pre-incubation = 100) [8] | % binding of the fluorescently labeled mAb (IgG pre-incubation = 100) [9] | % binding of the fluorescently labeled mAb (IgG pre-incubation = 100) [10] | % binding of the fluorescently labeled mAb (IgG pre-incubation = 100) [11]
1 | hCD103.01A (antibody, V domains shown, Also tested labelled with AF647, conjugated with Df and labelled with 89Zr; these are written under this molecule; also called clone 01A; hCD103.01 mAb) VH: EVQLQESGPSLVKPSQTLSLTCSVTGDSITSGYWNWIRKFPGNKLEYMGYITYSGSTYYNPSLKSRISITRDTSKNQYYLQLNSVTTEDTATYYCTRHYYGSDAMDYWGQGTSVTVSS VL: DIVMTQSHKFMSTSVGDRVSITCKASQDVSIAVAWYQQRPGQSPKLLIYSASYRYTGVPDRFTGSGSGTDFTFTISSVQAEDLAVYYCQQHYSTPWTFGGGTKLEIK | 100% | 4% | no binding | 2.5% | no binding | 92.3% | 2.2% | 3% | 81.8% | 96.7% | 100%
2 | hCD103.05A (antibody, mouse IgG1, V domains shown, Also tested labelled with AF647, conjugated with Df and labelled with 89Zr; these are written under this molecule; also called clone 05A; hCD103.05 mAb) VH: EVQLQQSGPELEKPGASAKISCKASGYSFTGYNMNWVKQSNGKSLEWIGNIDPYYGGTSYNQKFKGKATLTVDKSSSTAYMQLKSLTSEDSAVYYCARSFYGYDAGSPYNYAMDYWGQGTPVTVSP VL: DIVMTQSHKFMSTSVGDRVSITCKASQDVGTFVAWYQQKPGQSPKLLIYWASTRHTGVPDRFTGSGSGTDFTLTISNVQSEDLADYFCHQYSSYPYTFGGGTQLEIK | 100% | 4.9% | no binding | 4.2% | no binding | 89.7% | 2.2% | 4.6% | 101% | 100% | 100%

Next, values leading:

Row | % binding of the fluorescently labeled mAb (IgG pre-incubation = 100) [1] | % binding of the fluorescently labeled mAb (IgG pre-incubation = 100) [2] | binding result [3] | % binding of the fluorescently labeled mAb (IgG pre-incubation = 100) [4] | binding result [5] | % binding of the fluorescently labeled mAb (IgG pre-incubation = 100) [6] | % binding of the fluorescently labeled mAb (IgG pre-incubation = 100) [7] | % binding of the fluorescently labeled mAb (IgG pre-incubation = 100) [8] | % binding of the fluorescently labeled mAb (IgG pre-incubation = 100) [9] | % binding of the fluorescently labeled mAb (IgG pre-incubation = 100) [10] | % binding of the fluorescently labeled mAb (IgG pre-incubation = 100) [11] | Binder
3 | 100% | 1% | no binding | 0.7% | no binding | 92.5% | 0.7% | 0.9% | 73.2% | 94.4% | 100% | hCD103.07A (antibody, mouse IgG1, V domains shown, also called clone 07A) VH: EVQLQESGPSLVKPSQTLSLTCSVTGDSITSGYWNWIRKFPGNKLEYMGYITYSGSTYYNPSLKSRISITRDTSKNQYYLQLNSVTTEDTATYYCARNYYGSSSMDYWGQGTSVTVSS VL: DIVMTQSQKFMSTSVADRVSVTCKASQNVGSDVAWYQQKPGQSPKSLIYSASYRYSGVPDRFTGSGSGTDFTLTISNVQSEDLAEYFCQQYNSYPSTFGGGTKLEIK
4 | 100% | 109% | no binding | 84.9% | no binding | 1% | 99.1% | 103% | 18.7% | 101% | 100% | hCD103.06A (antibody, mouse IgG1, V domains shown, also called clone 06A; hCD103.06 mAb) VH: QVQLQQPGSELVRPGASVKLSCKASGYTFTSYWMHWVKQRHGQGLEWIGNIYPGSGSTNYDEKFKSKGTLTVDTSSSTAYMHLSSLTSEDSAVYYCTRGVYDNPYYFDYWGQGTTLTVSS VL: DIQMTQSSSNLSVSLGGRVTITCKASDHINNWLAWYQQKPGNAPRVLISGATSLETGVPSRFSGSGSGKDYTLSITSLQTEDVATYYCQQYWSIPLTFGAGTKLELK
